Laboratory results published in article doi:10.1101/2025.11.20.689565.
Positions count from the first letter of the chain named. Names and notes keep the numbering of the source. Blank lines part the entries; values can stand above or below the binder they belong to.

What was measured:
[1] = biological target: T1, C. elegans γ-tubulin complex (γTuC): γ-tubulin TBG-1, GCP2 GIP-2-5Myc, GCP3 GIP-1 and MZT-1, P34475;G5EF84; test: pull-down on γTuC-coated beads, anti-MBP immunoblot; conditions: chain shown with the change, binding 2 hours at 4°C, scale: band intensity relative to SPD-5 1-113 without PLK1
[2] = biological target: T1, C. elegans γ-tubulin complex (γTuC): …; test: pull-down on γTuC-coated beads, anti-SPD-5 immunoblot; conditions: chain shown with the change, binding 2 hours at 4°C, scale: band intensity relative to SPD-5 135-473 without PLK1
[3] = +PLK1 preincubation (2.0 μM fragment, 500 nM PLK1(T194D), 0.2 mM ATP, 1 hour at 23°C), 75 nM SPD-5 …

T1 sequence (chain, as listed by the source, chain 1 of 4): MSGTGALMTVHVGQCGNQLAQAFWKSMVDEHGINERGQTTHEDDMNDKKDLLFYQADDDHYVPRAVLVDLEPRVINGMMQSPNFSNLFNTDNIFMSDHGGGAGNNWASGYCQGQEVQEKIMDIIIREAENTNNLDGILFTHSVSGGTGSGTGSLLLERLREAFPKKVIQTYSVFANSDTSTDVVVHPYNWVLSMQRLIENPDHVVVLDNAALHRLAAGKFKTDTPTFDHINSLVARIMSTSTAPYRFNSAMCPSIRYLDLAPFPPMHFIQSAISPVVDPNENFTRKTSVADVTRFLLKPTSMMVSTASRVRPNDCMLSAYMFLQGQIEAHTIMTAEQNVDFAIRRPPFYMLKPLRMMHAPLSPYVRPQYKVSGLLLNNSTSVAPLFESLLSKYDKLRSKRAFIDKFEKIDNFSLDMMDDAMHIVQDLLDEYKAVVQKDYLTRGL
T1 sequence (chain, as listed by the source, chain 2 of 4): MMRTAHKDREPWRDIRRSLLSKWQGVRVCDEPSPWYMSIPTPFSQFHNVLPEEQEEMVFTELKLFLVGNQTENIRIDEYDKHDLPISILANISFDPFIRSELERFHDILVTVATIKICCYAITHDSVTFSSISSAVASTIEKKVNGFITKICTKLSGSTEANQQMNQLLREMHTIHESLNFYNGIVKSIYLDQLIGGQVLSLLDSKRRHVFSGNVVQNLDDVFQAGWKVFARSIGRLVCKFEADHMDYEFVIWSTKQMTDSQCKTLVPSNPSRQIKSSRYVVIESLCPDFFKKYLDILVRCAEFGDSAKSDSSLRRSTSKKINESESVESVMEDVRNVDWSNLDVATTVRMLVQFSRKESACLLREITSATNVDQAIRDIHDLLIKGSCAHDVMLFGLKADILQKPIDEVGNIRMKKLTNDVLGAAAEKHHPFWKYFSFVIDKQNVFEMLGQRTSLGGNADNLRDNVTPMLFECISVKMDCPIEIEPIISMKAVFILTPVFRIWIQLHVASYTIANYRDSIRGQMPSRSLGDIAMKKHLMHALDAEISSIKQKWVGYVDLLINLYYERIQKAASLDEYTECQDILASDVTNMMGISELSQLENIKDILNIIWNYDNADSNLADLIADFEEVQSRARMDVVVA
T1 sequence (chain, as listed by the source, chain 3 of 4): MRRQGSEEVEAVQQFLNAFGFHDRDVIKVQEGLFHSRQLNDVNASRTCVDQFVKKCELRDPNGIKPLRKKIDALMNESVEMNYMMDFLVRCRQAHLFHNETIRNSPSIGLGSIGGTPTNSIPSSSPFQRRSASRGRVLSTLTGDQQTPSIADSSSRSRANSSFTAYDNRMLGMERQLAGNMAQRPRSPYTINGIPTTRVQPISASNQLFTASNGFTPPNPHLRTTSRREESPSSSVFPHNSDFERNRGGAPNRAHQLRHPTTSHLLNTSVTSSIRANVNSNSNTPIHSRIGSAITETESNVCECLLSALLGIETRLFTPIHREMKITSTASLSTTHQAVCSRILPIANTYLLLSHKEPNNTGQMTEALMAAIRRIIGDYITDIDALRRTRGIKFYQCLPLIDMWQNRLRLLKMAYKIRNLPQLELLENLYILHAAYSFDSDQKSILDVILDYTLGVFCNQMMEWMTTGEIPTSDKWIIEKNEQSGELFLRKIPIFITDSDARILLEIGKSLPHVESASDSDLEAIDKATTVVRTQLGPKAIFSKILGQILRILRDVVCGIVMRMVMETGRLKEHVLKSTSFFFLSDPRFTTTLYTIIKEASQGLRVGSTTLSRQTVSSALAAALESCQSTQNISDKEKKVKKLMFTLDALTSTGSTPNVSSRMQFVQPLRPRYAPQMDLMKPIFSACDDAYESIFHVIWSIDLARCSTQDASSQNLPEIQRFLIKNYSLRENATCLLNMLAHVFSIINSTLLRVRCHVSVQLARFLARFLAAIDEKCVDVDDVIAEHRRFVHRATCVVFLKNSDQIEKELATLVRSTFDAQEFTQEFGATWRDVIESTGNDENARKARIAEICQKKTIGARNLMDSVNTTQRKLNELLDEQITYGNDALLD
T1 sequence (chain, as listed by the source, chain 4 of 4): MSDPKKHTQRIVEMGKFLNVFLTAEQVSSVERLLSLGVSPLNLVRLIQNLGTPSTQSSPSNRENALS

response [1, 3]: 4.7
B1: MBP-6His-HA (M6HH)-tagged SPD-5 aa 1-113, PLK1-phosphorylated, P91349 S5A; S11A (protein)
chain: MEDNAVLNEDANLEHVEGQPRRSMSQPVLNVEGDKRTSSTSATQQQVLSGAFSSADVRSIPIIQTWEENKALKTKITILRGELQMYQRRYSEAKEASQKRVKEVMDDYVDLKL

response [2, 3]: 0.1
B3: untagged SPD-5 aa 135-473, PLK1-phosphorylated, P91349 S170A; T178A; T198A (protein)
chain: MQSRIETSEDNFARQMKEFEAQKHAMEERIKELELAATDANNTAVGSFRGTLDDILKKNDPDFALTSGYEERKINDLEAKLLSEIDKVAELEDHIQQLRQELDDQSARLADSENVRAQLEAATGQGILGAAGNAMVPNSTFMIGNGRESQTRDQLNYIDDLETKLADAKKENDKARQALVEYMNKCSKLEHEIRTMVKNSTFDSSSMLLGGQTSDELKIQIGKVNGELNVLRAENRELRIRCDQLTGGDGNLSISLGQSRLMAGIATNDVDSIGQGNETGGTSMRILPRESQLDDLEESKLPLMDTSSAVRNQQQFASMWEDFESVKDSLQNNHNDTLE

response [2, 3]: 2.8
B7: untagged SPD-5 aa 135-473, PLK1-phosphorylated, P91349 T274A; T335A; S339A; S340A (protein)
chain: B3 chain with A36S, A44T, A64T, T140A, T201A, S205A, S206A

The next lines start with the binder.

B2: MBP-6His-HA (M6HH)-tagged SPD-5 aa 1-113, not phosphorylated, P91349 S5A; S11A (protein)
chain: B1 chain
response ([1]; no PLK1, 75 nM SPD-5 fragment): 0.6

B4: untagged SPD-5 aa 135-473, not phosphorylated, P91349 S170A; T178A; T198A; T274A; T335A; S339A; S340A (protein)
chain: B3 chain with T140A, T201A, S205A, S206A
response ([2]; no PLK1, 75 nM SPD-5 fragment): 0.1

B5: untagged SPD-5 aa 135-473, not phosphorylated, P91349 S170A; T178A; T198A (protein)
chain: B3 chain
response ([2]; no PLK1, 75 nM SPD-5 fragment): 0.7

B6: untagged SPD-5 aa 135-473, PLK1-phosphorylated, P91349 S170A; T178A; T198A; T274A; T335A; S339A; S340A (protein)
chain: B3 chain with T140A, T201A, S205A, S206A
response [2, 3]: 0

B8: untagged SPD-5 aa 135-473, not phosphorylated, P91349 T274A; T335A; S339A; S340A (protein)
chain: B3 chain with A36S, A44T, A64T, T140A, T201A, S205A, S206A
response ([2]; no PLK1, 75 nM SPD-5 fragment): 0.1
